Experimental data: patent US20120135912A1 (PERSEID THERAPEUTICS, published 2012)
Numbering of substitutions follows the chain as printed. Values belong to the binder of their own block, whether it stands above or below them.

Columns and labels:
[1] = biological target: T1, human VLA4-Fc (alpha4-Fc/beta1-Fc heterodimer) (human); assay: SPR (BIACORE), VLA4-Fc captured by anti-human IgG, 1 mM MnCl2, 1:1 Langmuir
T1 construct: Soluble heterodimer from CHO cells, Protein A purified; also called VLA-Fc
T1 sequence (chain, as listed by the source limits assumed, form in doubt, chain 1 of 2): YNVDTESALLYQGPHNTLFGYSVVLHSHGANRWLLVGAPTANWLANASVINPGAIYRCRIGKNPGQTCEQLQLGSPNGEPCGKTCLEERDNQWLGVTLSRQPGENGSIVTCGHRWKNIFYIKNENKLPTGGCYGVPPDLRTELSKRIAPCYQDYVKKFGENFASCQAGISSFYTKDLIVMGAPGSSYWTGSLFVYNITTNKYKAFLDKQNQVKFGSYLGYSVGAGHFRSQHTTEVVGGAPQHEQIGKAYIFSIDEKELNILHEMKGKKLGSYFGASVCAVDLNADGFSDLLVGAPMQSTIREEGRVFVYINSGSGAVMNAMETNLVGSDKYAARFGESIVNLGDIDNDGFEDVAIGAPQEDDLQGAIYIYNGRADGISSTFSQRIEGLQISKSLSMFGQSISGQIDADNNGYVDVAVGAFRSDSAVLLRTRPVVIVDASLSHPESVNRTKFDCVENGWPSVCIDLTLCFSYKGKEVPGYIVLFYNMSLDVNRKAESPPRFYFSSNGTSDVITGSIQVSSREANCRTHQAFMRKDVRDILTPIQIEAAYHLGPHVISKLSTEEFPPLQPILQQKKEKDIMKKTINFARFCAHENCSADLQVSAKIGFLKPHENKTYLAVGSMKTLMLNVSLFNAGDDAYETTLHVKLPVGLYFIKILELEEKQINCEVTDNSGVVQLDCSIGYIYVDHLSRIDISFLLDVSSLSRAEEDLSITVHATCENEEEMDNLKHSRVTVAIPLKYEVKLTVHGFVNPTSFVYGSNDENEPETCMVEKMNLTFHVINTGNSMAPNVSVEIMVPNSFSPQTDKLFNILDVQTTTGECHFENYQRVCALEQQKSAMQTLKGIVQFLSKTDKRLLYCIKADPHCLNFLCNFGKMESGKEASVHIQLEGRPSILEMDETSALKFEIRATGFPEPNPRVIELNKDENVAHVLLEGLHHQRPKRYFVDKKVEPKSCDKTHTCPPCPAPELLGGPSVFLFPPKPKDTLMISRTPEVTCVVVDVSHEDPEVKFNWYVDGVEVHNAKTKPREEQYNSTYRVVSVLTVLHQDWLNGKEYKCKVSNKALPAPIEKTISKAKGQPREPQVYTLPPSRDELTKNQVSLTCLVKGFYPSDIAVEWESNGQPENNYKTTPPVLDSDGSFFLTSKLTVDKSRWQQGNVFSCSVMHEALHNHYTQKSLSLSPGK
T1 sequence (chain, as listed by the source limits assumed, form in doubt, chain 2 of 2): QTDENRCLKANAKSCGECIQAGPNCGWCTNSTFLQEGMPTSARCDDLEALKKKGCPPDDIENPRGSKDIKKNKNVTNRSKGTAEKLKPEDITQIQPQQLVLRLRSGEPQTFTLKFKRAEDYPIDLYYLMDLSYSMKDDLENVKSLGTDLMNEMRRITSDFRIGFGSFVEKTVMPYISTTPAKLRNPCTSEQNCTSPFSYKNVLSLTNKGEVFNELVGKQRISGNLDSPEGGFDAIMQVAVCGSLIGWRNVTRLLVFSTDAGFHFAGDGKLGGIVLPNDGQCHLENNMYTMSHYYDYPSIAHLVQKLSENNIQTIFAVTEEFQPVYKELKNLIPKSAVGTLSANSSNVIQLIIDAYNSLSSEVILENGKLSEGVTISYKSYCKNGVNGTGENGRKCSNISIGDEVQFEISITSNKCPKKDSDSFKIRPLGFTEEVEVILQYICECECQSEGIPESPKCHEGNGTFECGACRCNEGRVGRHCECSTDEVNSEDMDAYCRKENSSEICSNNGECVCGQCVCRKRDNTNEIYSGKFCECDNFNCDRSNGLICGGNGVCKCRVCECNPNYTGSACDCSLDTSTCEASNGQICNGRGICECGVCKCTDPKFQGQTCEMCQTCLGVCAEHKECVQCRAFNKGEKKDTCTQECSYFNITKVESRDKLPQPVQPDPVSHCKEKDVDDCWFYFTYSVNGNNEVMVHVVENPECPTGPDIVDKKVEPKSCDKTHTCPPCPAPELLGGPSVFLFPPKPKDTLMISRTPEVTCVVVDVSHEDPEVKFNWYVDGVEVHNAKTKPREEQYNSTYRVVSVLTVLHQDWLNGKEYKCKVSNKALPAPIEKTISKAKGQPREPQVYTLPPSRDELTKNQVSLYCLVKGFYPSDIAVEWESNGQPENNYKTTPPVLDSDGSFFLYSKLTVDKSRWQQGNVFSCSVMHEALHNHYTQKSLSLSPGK
Protocol: (§1) The kinetic 2D-VCAM-1 assay measures binding kinetics of a dimeric ligand (e.g., VLA-Fc fusion protein or LPAM-1-Fc fusion protein) coated to sensor chips and monomeric analyte (e.g., 2D-VCAM-1 variant polypeptides) in the mobile phase. Goat anti-human IgG antibody (Jackson ImmunoResearch, Catalog No. 105-005-098) was immobilized on CM-5 sensor chips (GE Healthcare, Catalog No. BR-1000-14) according to the manufacturer's protocol. Antibody was diluted to 30 μg/ml in immobilization buffer (10 mM sodium acetate, pH 5.0 (GE Healthcare, Catalog No. BR-1003-51)). […] Un-reacted sites were quenched with 35 μl of 1 M ethanolamine-HCl pH 8.5 (GE Healthcare, Catalog No. BR-1000-50). This procedure typically yielded 15,000 response units (RU) of coupled antibody. VLA4-Fc or LPAM-1-Fc, prepared as described in Examples 3 and 4, respectively, were bound to antibody-coated sensor chips by injection of 20 μl of ligand solution (20 μg/ml protein in HBS-P-Mn buffer at a flow rate of 10 μl/min). Ligand capture levels were typically 200-300 RU. 2D-VCAM-1 variant polypeptides were diluted in HBS-P-Mn and flowed over ligand-coated sensor chips for 2 min at 30 μl/min, followed by 5 min incubation with in HBS-P-Mn containing no protein at the same flow rate. For 2D-VCAM-1 variant polypeptides having very slow dissociation rates from VLA4-Fc or LPAM-1-Fc, kinetic assays were also conducted using longer dissociation times (e.g., 20 min). Rmax signal levels for 2D-VCAM-1 variant polypeptides ranged from approximately 5-25 RU. Regeneration between cycles was performed by 200 sec incubation with 10 mM glycine buffer (pH 1.7) at 50 μl/min. New chips were subjected to 4-5 cycles of capture/binding/regeneration prior to use in actual experiments. Data from a reference cell containing goat anti-human IgG capture antibody alone was subtracted from data obtained from flow cells containing captured VLA4-Fc or LPAM-1-Fc. Typically, 8 dilutions of 2D-VCAM-1 variant polypeptides ranging from 150 nM to 0.069 nM were analyzed against a blank reference (HBS-P-Mn buffer alone).

[2] = biological target: T2, human LPAM-1-Fc (alpha4-Fc/beta7-Fc heterodimer) (human); assay: SPR (BIACORE), LPAM-1-Fc captured by anti-human IgG, 1 mM MnCl2, 1:1 Langmuir
T2 construct: Soluble heterodimer from CHO cells, Protein A purified
T2 sequence (chain, as listed by the source limits assumed, chain 1 of 2): as the sequence (chain, as listed by the source limits assumed, form in doubt, chain 1 of 2) above
T2 sequence (chain, as listed by the source limits assumed, chain 2 of 2): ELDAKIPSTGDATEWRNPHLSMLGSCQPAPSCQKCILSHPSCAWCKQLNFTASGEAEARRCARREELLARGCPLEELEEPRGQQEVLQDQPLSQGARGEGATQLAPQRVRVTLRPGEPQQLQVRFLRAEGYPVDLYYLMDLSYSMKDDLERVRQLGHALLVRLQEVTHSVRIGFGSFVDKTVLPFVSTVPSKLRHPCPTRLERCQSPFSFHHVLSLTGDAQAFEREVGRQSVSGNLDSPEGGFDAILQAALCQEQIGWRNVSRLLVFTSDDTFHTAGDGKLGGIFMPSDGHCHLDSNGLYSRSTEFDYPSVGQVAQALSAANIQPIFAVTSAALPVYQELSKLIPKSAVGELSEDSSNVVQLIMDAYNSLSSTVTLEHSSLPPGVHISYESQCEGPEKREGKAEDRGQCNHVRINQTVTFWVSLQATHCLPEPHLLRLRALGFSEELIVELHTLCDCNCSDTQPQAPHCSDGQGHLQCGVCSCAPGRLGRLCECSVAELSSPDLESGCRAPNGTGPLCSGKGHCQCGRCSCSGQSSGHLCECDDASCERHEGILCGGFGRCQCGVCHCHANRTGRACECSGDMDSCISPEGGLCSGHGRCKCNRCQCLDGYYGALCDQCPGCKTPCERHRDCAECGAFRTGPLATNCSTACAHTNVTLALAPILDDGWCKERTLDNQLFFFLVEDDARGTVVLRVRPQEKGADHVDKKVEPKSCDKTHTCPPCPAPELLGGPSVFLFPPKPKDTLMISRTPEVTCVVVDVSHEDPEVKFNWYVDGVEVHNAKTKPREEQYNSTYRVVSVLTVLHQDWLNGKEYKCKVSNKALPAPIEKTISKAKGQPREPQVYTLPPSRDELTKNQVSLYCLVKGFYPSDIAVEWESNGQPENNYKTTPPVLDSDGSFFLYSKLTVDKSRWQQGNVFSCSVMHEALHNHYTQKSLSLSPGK
Protocol: as §1

[3] = biological target: T1, human VLA4-Fc (alpha4-Fc/beta1-Fc …); assay: ELISA, VLA4-Fc coated, 1 mM MnCl2; from EC50 values
Protocol: The relative binding affinities of various 2D-VCAM-1 variants to immobilized VLA4-Fc (α4-β1-Fc) heterodimer, relative to a control protein (e.g., Q38L-2D-VCAM-1 or to human 2D-VCAM-1), were deter using a solid-phase ELISA assay. MAXISORP™ ELISA plates (NUNC) were coated overnight at 4° C. with 50 ul VLA4-Fc heterodimer, 2 ug/ml in TBS-M (TBS (25 mM Tris-HCl pH 7.5, 150 mM NaCl) with 1 mM MnCl2), washed with TBS-T (TBS with 0.05% TWEEN-20), blocked with 200 ul 3% milk in TBS-M for 1 h at room temperature, and washed again with TBS-T. A four-fold dilution series of the purified 2D-VCAM variants to be assayed was made in COSTAR U-bottom plates in TBS-TMC (TBS with 0.05% Tween-20, 1 mM MnCl2, and 1% casein; Sigma) with a starting concentration of 8.2 uM (200 ug/ml). The dilution series was transferred into the ELISA plate which was incubated at room temperature for 2 h and subsequently washed with TBS-T. Bound 2D-VCAM protein was detected by incubation with 0.5 ug/ml of biotinylated anti-human VCAM antibody (R&D Systems, Catalog No. BAF809) in TBS-TMC for 1 h at room temperature followed by a TBS-MT (TBS plus 1 mM MnCl2 and 0.02% TWEEN-20) wash and subsequent incubation with 1:2000 dilution of streptavidin-HRP (BD Biosciences, Catalog No. 554066) in TBS-TMC for 30 min at room temperature. […] Typical development times ranged from […] and development was stopped by addition of 50 ul 2M H₂SO₄ (EM, Catalog No. SX1244-75). […] Fold-improvement in binding was calculated relative to a control protein (e.g., Q38L-2D-VCAM-1 or human 2D-VCAM-1) assayed on the same plate.

[4] = biological target: T2, human LPAM-1-Fc (alpha4-Fc/beta7-Fc …); assay: ELISA, LPAM-1-Fc coated, 1 mM MnCl2; from EC50 values
Protocol: The relative binding affinities of various 2D-VCAM variant proteins to immobilized LPAM-1-Fc (α4-Fc/β-7-Fc) heterodimer, relative to a control protein (e.g., Q38L-2D-VCAM-1 or human 2D-VCAM-1), were determined using a solid-phase ELISA assay. MAXISORP™ ELISA plates (NUNC) were coated overnight at 4° C. with 50 ul LPAM-1-Fc heterodimer (2 ug/ml in TBS-M, TBS (25 mM TRIS-HCl pH 7.5, 150 mM NaCl with 1 mM MnCl2), washed with TBS-T (TBS with 0.05% Tween-20), blocked with 200 ul 3% milk in TBS-M for 1 hr at room temperature, and washed again with TBS-T. A four-fold dilution series of the purified 2D-VCAM-1 variants to he assayed was made in COSTAR U-bottom plates in TBS-TMC (TBS with 0.05% Tween-20, 1 mM MnCl2 and 1% casein; Sigma) with a starting concentration of 8.2 uM (200 ug/ml). The dilution, series were transferred into the ELISA plate which was incubated at room temperature for 2 h and subsequently washed with TBS-T. Bound 2D-VCAM-1 protein was detected by incubation with 0.5 ug/ml of biotinylated anti-human VCAM antibody (R&D Systems, Catalog No. BAF809) in TBS-TMC for 1 h at room temperature followed by a TBS-T wash and subsequent incubation with 1:2000 dilution of streptavidin-HRP (BD Biosciences, Catalog No. 554066) in TBS-TMC for 30 min at room temperature. […] Typical development times ranged from 5-15 min and development was stopped by addition of 50 ul 2M H₂SO₄ (EM, Catalog No. SX1244-75). […] Fold-improvement in binding was calculated relative to a control protein (Q38L-2D-VCAM-1) assayed on the same plate.

[5] = biological target: T2, human LPAM-1-Fc (alpha4-Fc/beta7-Fc …); assay: SPR (BIACORE) as in Example 12, polypeptide purified from E. coli as analyte on captured LPAM-1-Fc; KD drawn as bars (Example 20)
[6] = biological target: T1, human VLA4-Fc (alpha4-Fc/beta1-Fc …); assay: SPR (BIACORE) as in Example 12, polypeptide purified from E. coli as analyte on captured VLA4-Fc; the black bar is broken and the value is written over it (Example 20)
[7] = biological target: T1, human VLA4-Fc (alpha4-Fc/beta1-Fc …); assay: SPR (BIACORE), crude CHO-S supernatant on VLA4-Fc

B1: human 2D-VCAM-1 (ligand)
chain: FKIETTPESRYLAQIGDSVSLTCSTTGCESPFFSWRTQIDSPLNGKVTNEGTTSTLTMNPVSFGNEHSYLCTATCESRKLEKGIQVEIYSFPKDPEIHLSGPLEAGKPITVKCSVADVYPFDRLEIDLLKGDHLMKSQEFLEDADRKSLETKSLEVTFTPVIEDIGKVLVCRAKLHIDEMDSVPTVRQAVKELQVYISP
notes: also called wild type 2D-VCAM-1; wt-2D-VCAM-1; not shown: His tag
Kd [1]: 15.2 nM
binding affinity for VLA4-Fc relative to human 2D-VCAM-1 [1]: 1 fold
Kd [2]: 248 nM
binding affinity for LPAM-1-Fc relative to human 2D-VCAM-1 [2]: 1 fold

B3: 2D-VCAM-1 variant Clone 147 (ligand)
chain: B1 chain with F32S, S34Y, T37P, Q38L, I39L, T74A, K79R
notes: not shown: His tag
fold-improvement in binding relative to Q38L-2D-VCAM-1 [3]: 11 fold
fold-improvement in binding relative to human 2D-VCAM-1 [3]: 88 fold
fold improvement in binding relative to Q38L-2D-VCAM-1 [4]: 23 fold

B5: R1R7 (ligand)
2D-VCAM-1 variant polypeptide: MFKIETTPESRYLAQIGDSVSLTCSTTGCESPFFFWRPLLDSPLNGKVTNEGTTSTLTMNPVSFGNEHSYLCTARCESRKLEKGIQVEIYSFPKDPEIHLSGPLEAGKPITVKCSVADVYPFDRLEIDLLKGDHLMKSQEFLEDADRKSLETKSLEVTFTPVIEDIGKVLVCRAKLHIDEMDSVPTVRQAVKELQVYISP
notes: also called 146R1R7
binding result [5]: binds

B7: R3R7 (ligand)
2D-VCAM-1 variant polypeptide: B5 2D-VCAM-1 variant polypeptide with F33L, P38T
notes: also called 146R3R7
binding result [5]: binds

B10: R5R7 (ligand)
2D-VCAM-1 variant polypeptide: B5 2D-VCAM-1 variant polypeptide with F33L, L40I
notes: also called 146R5R7
binding result [5]: binds

B11: R6R7 (ligand)
2D-VCAM-1 variant polypeptide: B5 2D-VCAM-1 variant polypeptide with F33L, R75T
notes: also called 146R6R7
binding result [5]: binds

B12: R1R5 (ligand)
2D-VCAM-1 variant polypeptide: B5 2D-VCAM-1 variant polypeptide with L40I, K80S
notes: also called 146R1R5
binding result [5]: binds

The remaining lines, values ahead:

fold-improvement in binding relative to Q38L-2D-VCAM-1 [3]: 2 fold
fold-improvement in binding relative to human 2D-VCAM-1 [3]: 16 fold
B2: 2D-VCAM-1 variant Clone 151 (ligand)
chain: B1 chain with F32S, S34Y, T37P, I39L, S41A, T74A, K79R
notes: not shown: His tag

fold-improvement in binding relative to Q38L-2D-VCAM-1 [3]: 4 fold
fold-improvement in binding relative to human 2D-VCAM-1 [3]: 32 fold
fold improvement in binding relative to Q38L-2D-VCAM-1 [4]: 5 fold
Kd [1]: 0.417 nM
binding affinity for VLA4-Fc relative to human 2D-VCAM-1 [1]: 36 fold
Kd [2]: 31.2 nM
binding affinity for LPAM-1-Fc relative to human 2D-VCAM-1 [2]: 8 fold
B4: 2D-VCAM-1 variant Clone 150 (ligand)
chain: B1 chain with F32L, S34F, T37P, I39L, S41A, T74R, K79S
notes: not shown: His tag of the E. coli construct

binding result [5]: binds
B6: R1R3 (ligand)
2D-VCAM-1 variant polypeptide: B5 2D-VCAM-1 variant polypeptide with P38T, K80S
notes: also called 146R1R3

binding result [5]: binds
Kd [6]: 0.25 nM
B8: R3R5R7 (ligand)
2D-VCAM-1 variant polypeptide: B5 2D-VCAM-1 variant polypeptide with F33L, P38T, L40I
notes: also called 146R3R5R7

binding result [5]: binds
B9: R1R6R7 (ligand)
2D-VCAM-1 variant polypeptide: B5 2D-VCAM-1 variant polypeptide with R75T
notes: also called 146R1R6R7

fold weaker binding relative to 146R0 (KD(variant)/KD(146R0)) [7]: 9.3 fold
B13: 146R20 (ligand)
chain: FKIETTPESRYLAQIGDSVSLTCSTTGCESPFFFWRPQIDSPLNGKVTNEGTTSTLTMNPVSFGNEHSYLCTARCESRSLEKGIQVEIYSFPKDPEIHLSGPLEAGKPITVKCSVADVYPFDRLEIDLLKGDHLMKSQEFLEDADRKSLETKSLEVTFTPVIEDIGKVLVCRAKLHIDEMDSVPTVRQAVKELQVYISPGGGSDYKDDDDKGGGSDYKDDDDKGGGSDYKDDDDKGS
notes: Crude CHO-S supernatant, 3x spacer-FLAG tagged

fold weaker binding relative to 146R0 (KD(variant)/KD(146R0)) [7]: 1 fold
B14: 146R21 (ligand)
chain: B13 chain with P37T, Q38L, I39L
notes: Crude CHO-S supernatant, 3x spacer-FLAG tagged; also called I46R21

fold weaker binding relative to 146R0 (KD(variant)/KD(146R0)) [7]: 1.6 fold
B15: 146R22 (ligand)
chain: B13 chain with F32L, P37T, Q38L, I39L, S79K
notes: as for B13

fold weaker binding relative to 146R0 (KD(variant)/KD(146R0)) [7]: 6.1 fold
B16: 146R23 (ligand)
chain: B13 chain with P37T, Q38L, I39L, S79K
notes: as for B13
